According to PMC8792056 (2022):

B1: DNAJB12-FL-mOrange (natural protein)
chain: MESNKDEAERCISIALKAIQSNQPDRALRFLEKAQRLYPTPRVRALIESLNQKPQTAGDQPPPTDTTHATHRKAGGTDAPSANGEAGGESTKGYTAEQVAAVKRVKQCKDYYEILGVSRGASDEDLKKAYRRLALKFHPDKNHAPGATEAFKAIGTAYAVLSNPEKRKQYDQFGDDKSQAARHGHGHGDFHRGFEADISPEDLFNMFFGGGFPSSNVHVYSNGRMRYTYQQRQDRRDNQGDGGLGVFVQLMPILILILVSALSQLMVSSPPYSLSPRPSVGHIHRRVTDHLGVVYYVGDTFSEEYTGSSLKTVERNVEDDYIANLRNNCWKEKQQKEGLLYRARYFGDTDMYHRAQKMGTPSCSRLSEVQASLHG

Experiments:
[1] = molecular target: DNAJB14-ΔDUF, FLAG-tagged (human); experiment: co-IP; HEK293T cells transfected with FLAG-tagged chaperone (DNAJB12 isoforms alone or with HTT-134Q-GFP or HTT-17Q-GFP; DNAJB14 forms also in cells expressing FUS-WT-YFP or FUS-R521H-YFP), lysed 48 h later in 50 mM HEPES pH 7.9, 0.5% Triton X-100, 5% glycerol, 150 mM NaCl, 2 mM EDTA; anti-FLAG M2 beads 3 h at 4 °C, 7 washes; blot with anti-HSC70/HSP70 for endogenous HSP70
[2] = molecular target: DNAJB14-ΔDUF, FLAG-tagged (human); experiment: co-IP; HEK293T cells co-transfected with FLAG-tagged DNAJB14 forms and DNAJB12-FL-mOrange; lysis in 50 mM HEPES pH 7.9, 0.5% Triton X-100, 5% glycerol, 150 mM NaCl, 2 mM EDTA; anti-FLAG M2 beads 3 h at 4 °C, 7 washes; blot with anti-RFP for mOrange, normalised to the FLAG band

| Molecule | interaction as percent of that of DNAJB14-FL [1] [%] | fold lower interaction than with DNAJB14-FL [2] [fold] |
| --- | --- | --- |
| HSP70 (from UniProt P0DMV8 1-641) (natural protein) | 50 |  |
| B1 |  | 3 |
